Laboratory results published in patent publication US20110151538A1.

Molecular target: CBM-Coh (carbohydrate-binding module and type-I cohesin from C. thermocellum CipA) (Clostridium thermocellum)
Assay: ELISA, plates coated with CBM-Coh; wtDoc-Xyn in 10 mM EDTA against wtDoc-Xyn in 1 mM CaCl2

ΔΔG (in EDTA relative to Ca2+): 2.01 kcal/mol
Substance: wtDoc-Xyn (wild-type C. thermocellum Cel48S dockerin fused to the N-terminus of G. stearothermophilus xylanase T-6, C-terminal His tag)
